{
  "source": "patent US20240148892A1",
  "about": "(DUALITY BIOLOGICS SUZHOU, published 2024)",
  "target": "T1, Human B7-H3(4Ig), His Tag (human, UniProt Q5ZPR3 29-461)",
  "T1 construct": "Bought protein; also called recombinant human B7H3 antigen; human B7-H3 protein; not shown: His tag",
  "T1 sequence (looked up)": "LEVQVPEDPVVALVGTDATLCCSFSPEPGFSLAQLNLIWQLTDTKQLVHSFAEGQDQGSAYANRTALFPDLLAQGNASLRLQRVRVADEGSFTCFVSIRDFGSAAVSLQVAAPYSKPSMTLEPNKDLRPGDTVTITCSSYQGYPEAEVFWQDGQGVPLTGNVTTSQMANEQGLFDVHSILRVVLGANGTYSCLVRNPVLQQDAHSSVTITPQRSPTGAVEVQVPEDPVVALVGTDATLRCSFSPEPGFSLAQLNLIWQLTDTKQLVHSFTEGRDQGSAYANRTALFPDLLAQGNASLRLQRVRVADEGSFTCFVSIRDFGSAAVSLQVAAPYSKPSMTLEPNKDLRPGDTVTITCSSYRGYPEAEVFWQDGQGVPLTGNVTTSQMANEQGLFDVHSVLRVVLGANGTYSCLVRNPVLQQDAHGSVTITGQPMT",
  "assay": "ELISA, plate coated with 2 µg/mL recombinant human B7-H3 (4Ig) His, serially diluted antibody, HRP anti-human secondary antibody, OD450",
  "protocol": "A 96-well ELISA plate was coated with 2 μg/mL recombinant human B7H3 antigen (see the table above) at 30 μL/well and kept at 4° C. overnight. The following day, the well plate was washed 3 times with PBST and then blocked with 5% skim milk for 2 h. […] The plate was then washed 3 times with PBST, and an HRP-labeled anti-human secondary antibody diluted in a 1:5000 ratio was then added at 100 μL/well and incubated for 1 h. After the incubation was complete, the plate was washed six times with PBST, and TMB (SurModics, TMBS-1000-01) was added for color development. Based on the results of the color development, the reaction was stopped by adding 2M HCl, and the plate was read by a microplate reader (Molecular Devices, SpecterMax 190) at OD450.",
  "data": [
    {"binder": "W301088-1.145.16-z3-p1-uIgG1KV320 (antibody, V domains shown, Humanized, PTM-removed (VL N027dQ) human IgG1 LALA kappa antibody; also called WBP301088; W301088-z3-p1) VH: QVQLQESGPGLVKPSQTLSLTCTVTDYSITGDYAWNWIRQHPGKGLEWIGYISYSGSTSYNPSLQSRVTISRDTSKNQFSLKLSSVTAADTAVYFCARSLGRRWYFVVWGQGTTVTVSS VL: not shown", "values": [
      {"measurement": "EC50 (read off the curve)", "value": "~0.2", "unit": "µg/mL"}
    ]}
  ]
}
